Patent US20210214461A1

How the values were obtained:
[1] = target: pre-existing anti-scFv903 antibodies in human serum H79 (human); assay: competition ADA bridging ELISA
[2] = target: pre-existing anti-scFv903 antibodies in human serum H3 (human); assay: competition ADA bridging ELISA
[3] = target: pre-existing anti-scFv903 antibodies in human serum H81 (human); assay: competition ADA bridging ELISA
[4] = target: pre-existing anti-scFv903 antibodies in human serum H54 (human); assay: competition ADA bridging ELISA
[5] = target: pre-existing anti-scFv903 antibodies in human serum H50 (human); assay: competition ADA bridging ELISA
[6] = target: pre-existing anti-scFv903 antibodies in human serum H96 (human); assay: competition ADA bridging ELISA
[7] = target: pre-existing anti-scFv903 antibodies in human serum H21 (human); assay: competition ADA bridging ELISA
[8] = target: pre-existing anti-scFv903 antibodies in human serum H76 (human); assay: competition ADA bridging ELISA
[9] = target: pre-existing anti-scFv903 antibodies in human serum H8 (human); assay: competition ADA bridging ELISA
[10] = target: pre-existing anti-scFv903 antibodies in human serum H19 (human); assay: competition ADA bridging ELISA
[11] = target: pre-existing anti-scFv903 antibodies in human serum H105 (human); assay: competition ADA bridging ELISA
[12] = target: pre-existing anti-scFv903 antibodies in human serum H46 (human); assay: competition ADA bridging ELISA
[13] = target: pre-existing anti-scFv903 antibodies in human serum H20 (human); assay: competition ADA bridging ELISA
[14] = target: pre-existing anti-scFv903 antibodies in human serum H40 (human); assay: competition ADA bridging ELISA
[15] = target: pre-existing anti-scFv903 antibodies in human serum H26 (human); assay: competition ADA bridging ELISA
[16] = target: pre-existing anti-scFv903 antibodies in human serum H135 (human); assay: competition ADA bridging ELISA
[17] = target: pre-existing anti-scFv903 antibodies in human serum H55 (human); assay: competition ADA bridging ELISA
[18] = target: pre-existing anti-scFv903 antibodies in human serum H59 (human); assay: competition ADA bridging ELISA
[19] = target: pre-existing anti-scFv903 antibodies in human serum H14 (human); assay: competition ADA bridging ELISA
[20] = target: pre-existing anti-scFv903 antibodies in human serum H69 (human); assay: competition ADA bridging ELISA
[21] = target: pre-existing anti-scFv903 antibodies in human serum H66 (human); assay: competition ADA bridging ELISA
[22] = target: pre-existing anti-scFv903 antibodies in human serum H125 (human); assay: competition ADA bridging ELISA
[23] = target: pre-existing anti-scFv903 antibodies in human serum H56 (human); assay: competition ADA bridging ELISA
[24] = target: pre-existing anti-scFv903 antibodies in human serum H115 (human); assay: competition ADA bridging ELISA
[25] = target: pre-existing anti-scFv903 antibodies in human serum H53 (human); assay: competition ADA bridging ELISA
[26] = target: pre-existing anti-scFv903 antibodies in human serum H86 (human); assay: competition ADA bridging ELISA
[27] = target: rabbit polyclonal Anti-scFv 903 IgG termed AB903-3 (rabbit); assay: confirmatory ADA bridging ELISA, pre-incubation with 10, 100 or 1 mcg/ml scFv 903

Row | Binder | signal change in competition ELISA (% reduction in OD) [1] | signal change in competition ELISA (% reduction in OD) [2] | signal change in competition ELISA (% reduction in OD) [3] | signal change in competition ELISA (% reduction in OD) [4] | signal change in competition ELISA (% reduction in OD) [5] | signal change in competition ELISA (% reduction in OD) [6] | signal change in competition ELISA (% reduction in OD) [7] | signal change in competition ELISA (% reduction in OD) [8] | signal change in competition ELISA (% reduction in OD) [9] | signal change in competition ELISA (% reduction in OD) [10] | signal change in competition ELISA (% reduction in OD) [11] | signal change in competition ELISA (% reduction in OD) [12] | signal change in competition ELISA (% reduction in OD) [13] | signal change in competition ELISA (% reduction in OD) [14] | signal change in competition ELISA (% reduction in OD) [15] | signal change in competition ELISA (% reduction in OD) [16] | signal change in competition ELISA (% reduction in OD) [17] | signal change in competition ELISA (% reduction in OD) [18] | signal change in competition ELISA (% reduction in OD) [20] | signal change in competition ELISA (% reduction in OD) [22] | also measured
1 | scFv105 (scFv) scFv: DIVMTQSPSSLSASVGDRVTLTCTASQSVSNDVVWYQQRPGKAPKLLIYSAFNRYTGVPSRFSGRGYGTDFTLTISSLQPEDVAVYYCQQDYNSPRTFGQGTKLEVKRGGGGSGGGGSGGGGSSGGGSQVQLVQSGAEVKKPGASVKVSCTASGYTFTHYGMNWVRQAPGKGLEWMGWINTYTGEPTYADKFKDRFTFSLETSASTVYMELTSLTSDDTAVYYCARERGDAMDYWGQGTLVTVSS | -41% | -59% | -18% | -61% | -31% | -29% | -3% | -18% | -23% | -73% | 2% | -67% | -19% | 4% | -80% | -23% | -72% | -94% | -88% | -55% | signal change in competition ELISA (% reduction in OD) [19]: -4%; signal change in competition ELISA (% reduction in OD) [21]: -3%; signal change in competition ELISA (% reduction in OD) [23]: -5%; signal change in competition ELISA (% reduction in OD) [24]: -60%; signal change in competition ELISA (% reduction in OD) [25]: -18%
2 | scFv 791 (scFv) scFv: MEIVMTQSPSTLSASLGDRVIITCQSSQSVYGNIWMAWYQQKSGKAPKLLIYQASKLASGVPSRFSGSGSGAEFSLTISSLQPDDFATYYCQGNFNTGDRYAFGQGTKLTVLGGGGGSGGGGSGGGGSGGGGSEVQLVESGGGLVQPGGSLRLSCTASGFTISRSYWICWVRQAPGKGLEWVACIYGDNDITPLYANWAKGRFPVSTDTSKNTVYLQMNSLRAEDTAVYYCARLGYADYAYDLWGQGTLVTVSS | -97% | -85% | -94% | -92% | -89% | -79% | -85% | -96% | -91% | -84% | -97% | -77% | -96% | -95% | -97% | -95% | -96% | -96% | -75% | -97% | signal change in competition ELISA (% reduction in OD) [26]: -87%; signal change in competition ELISA (% reduction in OD) [19]: -96%; signal change in competition ELISA (% reduction in OD) [21]: -96%; signal change in competition ELISA (% reduction in OD) [23]: -15%; signal change in competition ELISA (% reduction in OD) [24]: -95%; signal change in competition ELISA (% reduction in OD) [25]: -35%
3 | scFv 903 (scFv) scFv: EIVMTQSPSTLSASVGDRVIITCQASEIIHSWLAWYQQKPGKAPKLLIYLASTLASGVPSRFSGSGSGAEFTLTISSLQPDDFATYYCQNVYLASTNGANFGQGTKLTVLGGGGGSGGGGSGGGGSGGGGSEVQLVESGGGLVQPGGSLRLSCTASGFSLTDYYYMTWVRQAPGKGLEWVGFIDPDDDPYYATWAKGRFTISRDTSKNTVYLQMNSLRAEDTAVYYCAGGDHNSGWGLDIWGQGTLVTVSS | -97% | -80% | -95% | -93% | -89% | -80% | -85% | -97% | -87% | -90% | -97% | -80% | -92% | -95% | -92% | -93% | -89% | -97% | -92% | -98% | OD change upon pre-incubation [27]: 60 to 95%; signal change in competition ELISA (% reduction in OD) [26]: -86%; signal change in competition ELISA (% reduction in OD) [19]: -97%; signal change in competition ELISA (% reduction in OD) [21]: -97%; signal change in competition ELISA (% reduction in OD) [23]: -24%; signal change in competition ELISA (% reduction in OD) [24]: -95%; signal change in competition ELISA (% reduction in OD) [25]: -32%
4 | scFv 961 (scFv) scFv: EIVMTQSPSTLSASVGDRVIITCQASEIIHSWLAWYQQKPGKAPKLLIYLASTLASGVPSRFSGSGSGAEFTLTISSLQPDDFATYYCQNVYLASTNGANFGQGTKLTVLGGGGGSGGGGSGGGGSGGGGSEVQLVESGGGSVQPGGSLRLSCTASGFSLTDYYYMTWVRQAPGKGLEWVGFIDPDDDPYYATWAKGRFTISRDTSKNTVYLQMNSLRAEDTATYYCAGGDHNSGWGLDIWGQGTTVTVSS | -74% | -2% | -9% | -69% | -73% | -78% | -81% | -36% | -89% | -64% | 7% | -40% | -23% | -2% | 0% | -75% | -15% | -67% | -6% | 3% | signal change in competition ELISA (% reduction in OD) [26]: -68%; signal change in competition ELISA (% reduction in OD) [23]: -24%; signal change in competition ELISA (% reduction in OD) [24]: -31%; signal change in competition ELISA (% reduction in OD) [25]: -31%
